In article PMC11215065, “The HHV-6B U20 glycoprotein binds ULBP1, masking it from recognition by NKG2D and interfering with natural killer cell activation” (Frontiers in Immunology, 2024):

Molecular target: T1, Soluble U20 extracellular domain (sU20) of HHV-6B (HHV-6B, nine N-linked glycosylation sites with high mannose glycans; after EndoH a single GlcNAc at each site)
T1 construct: HHV-6B U20 glycoprotein, extracellular domain; Dimer in solution when alone (SEC-MALS, SEC-SAXS); Used glyco-intact or EndoH-treated, as told for each assay; also called soluble recombinant U20; source: stably transduced HEK293 GnTI cells, purified from supernatant (Nickel-NTA, cation exchange, SEC); in some cases treated with EndoH; not shown: 6xHIS, C-terminal, kept
Assay: SPR; Biacore 3000; biotinylated ULBP1-Fc (1000-2500 RU) on a Neutravidin coated CM5 chip; U20 injected at 0.125-32 μM; CD200 receptor Fc flow cell subtracted; equilibrium fit, one site specific binding, apparent; 20°C
Details: both partners purified

B1: ULBP1-Fc (Fc fusion)
chain: GWVDTHCLCYDFIITPKSRPEPQWCEVQGLVDERPFLHYDCVNHKAKAFASLGKKVNVTKTWEEQTETLRDVVDFLKGQLLDIQVENLIPIEPLTLQARMSCEHEAHGHGRGSWQFLFNGQKFLLFDSNNRKWTALHPGAKKMTEKWEKNRDVTMFFQKISLGDCKMWLEEFLMYWEQMLDPTKPPSLAPG
modifications: biotin on the BirA recognition sequence (for SPR)
Q: For B1, which Kd is on record?
A: The Kd was roughly 230 nM.
